Data from patent publication US8524668 (CLEVELAND CLINIC FOUNDATION, dated 2013).
Ends that are not written are not given here. Pam2 = S-(2,3-dihydroxypropyl)-cysteine acylated by two palmitic acids (lipo-cysteine)

Molecular target: TLR2/TLR6 heterodimer
Experiment: cell-based or functional assay

B1: CBLB607 (peptide)
peptide: Pam2-GDPKHPKSFTGWVA
NF-κB activation: 2

B2: CBLB602 (peptide)
peptide: Pam2-GQHHH
NF-κB activation: 0

B3: CBLB606 (peptide)
peptide: {R‑Pam2}-GDPKHPKSF
NF-κB activation: 100

B4: CBLB604 (peptide)
peptide: Pam2-GSHHM
NF-κB activation: 0

B5: CBLB614 (peptide)
peptide: QGEESNDK
modifications: not fully specified (N-terminus)
NF-κB activation: 200

B6: CBLB612 (peptide)
peptide: VQGEESNDK
modifications: not fully specified (N-terminus)
NF-κB activation: 200

B7: CBLB605 (peptide)
peptide: Pam2-SQMHH
NF-κB activation: 2

B8: CBLB603 (peptide)
peptide: Pam2-GQHHM
NF-κB activation: 0

B9: CBLB608 (peptide)
peptide: Pam2-FEPPPATTTKSK
NF-κB activation: 2

B10: CBLB611 (peptide)
peptide: GETDKEGKIIRIFDNSF
modifications: not fully specified (N-terminus)
NF-κB activation: 0

B11: CBLB601 (R-PAM2C-SKKKK) (peptide)
peptide: CSKKKK
modifications: N-terminal Cys is the R-Pam2 lipoamino acid (S-(2,3-dihydroxypropyl)-cysteine acylated by two palmitic acids, R stereoisomer)
NF-κB activation: 100

B12: CBLB615 (peptide)
peptide: GEESN
modifications: not fully specified (N-terminus)
NF-κB activation: 200
